Measurements taken from paper PMC9320966 (Arthritis & Rheumatology (Hoboken, N.j.), 2022).

Molecular target: COMP in mouse joint cartilage (Mus musculus, UniProt Q9R0G6)
Experiment: immunostaining of cells or tissue

Sequence of COMP in mouse joint cartilage (Q9R0G6 20-755): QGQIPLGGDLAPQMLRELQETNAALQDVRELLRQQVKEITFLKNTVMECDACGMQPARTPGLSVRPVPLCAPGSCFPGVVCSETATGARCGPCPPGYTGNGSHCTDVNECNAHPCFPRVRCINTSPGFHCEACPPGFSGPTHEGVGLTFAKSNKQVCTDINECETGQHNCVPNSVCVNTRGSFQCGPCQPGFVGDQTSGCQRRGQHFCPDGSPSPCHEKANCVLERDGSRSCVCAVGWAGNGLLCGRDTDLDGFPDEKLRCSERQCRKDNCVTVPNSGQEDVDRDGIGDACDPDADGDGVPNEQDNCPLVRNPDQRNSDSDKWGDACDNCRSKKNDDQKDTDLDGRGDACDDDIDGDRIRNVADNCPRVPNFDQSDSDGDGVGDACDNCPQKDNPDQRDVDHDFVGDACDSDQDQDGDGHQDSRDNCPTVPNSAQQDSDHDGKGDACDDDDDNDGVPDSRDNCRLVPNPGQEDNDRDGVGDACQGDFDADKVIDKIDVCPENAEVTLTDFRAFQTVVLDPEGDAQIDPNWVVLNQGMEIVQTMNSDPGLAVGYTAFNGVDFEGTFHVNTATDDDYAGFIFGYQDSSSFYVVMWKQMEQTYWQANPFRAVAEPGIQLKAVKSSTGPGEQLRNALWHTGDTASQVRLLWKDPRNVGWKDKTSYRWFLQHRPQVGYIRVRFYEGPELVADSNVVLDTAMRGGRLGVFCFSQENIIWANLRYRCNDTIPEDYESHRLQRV

binding result: binds
B1: murine monoclonal anti-COMP antibody 15A11 (antibody, V domains shown)
VH: QVQLQQSGAELAKPGASVNLSCKASGYTFTNYWVHWVKQRPGQGLEWIGYINPSNTYISYNQQFKDKATLTADKSSSTAYMQLSRLTYEDSSVYYCARGGFFYDYDVWYFDVWGTGTTVTVSS
VL: DVLMTQIPLSLPVSLGDQASISCRSSQNIVHSNGNTYLEWYLQKPGQSPKLLIYKVSNRFSGVPDRFSGSGSGTDFTLKISRVEAEDLGVYYCFQGSHVPFTFGSGTKLEIK
